The values that follow come from patent publication US12269859B2, “Synthetic immune receptors and methods of use thereof” (Angeles Therapeutics, Inc., priority 2016, dated 2025).

B1: 092216-G01 (protein)
chain: MALPVTALLLPLALLLHAARPLEGKPIPNPLLGLDSTGSGEDLKNVFPPEVAVFEPSKAEIAHTQKATLVCLATGFYPDHVELSWWVNGKEVHSGVCTDPQPLKEQPALNDSRYCLSSRLRVSATFWQNPRNHFRCQVQFYGLSENDEWTQDRAKPVTQIVSAEAWGRADCGITSASYHQGVLSATILYEILLGKATLYAVLVSALVLMAMVKRKDSRGRAKRSGSGATNFSLLKQAGDVEENPGPTSTMALPVTALLLPLALLLHAARPDIQMTQSPSSLSASLGERVSLTCRATQELSGYLSWLQQKPDGTIKRLIYAASTLDSGVPKRFSGNRSGSDYSLTISSLESEDFADYYCLQYAIYPYTFGGGTKLEIKGGGGSGGGGSGGGGSEVQLQQSGPELVKPGASVKMSCKASGYTFTSYFIHWVKQKPGQGLEWIGFINPYNDGSKYNEKFKGKATLTSDKSSSTAYMELSSLTSEDSAVYYCTRDDGYYGYAMDYWGQGTSVTVSSTREQKLISEEDGSGIQNPDPAVYQLRDSKSSDKSVCLFTDFDSQTNVSQSKDSDVYITDKCVLDMRSMDFKSNSAVAWSNKSDFACANAFNNSIIPEDTFFPSSDVPCDVKLVEKSFETDTNLNFQNLSVIGFRILLLKVAGFNLLMTLRLWSSRAKRSGSGVKQTLNFDLLKLAGDVESNPGPSRGHMTEYKPTVRLATRDDVPRAVRTLAAAFADYPATRHTVDPDRHIERVTELQELFLTRVGLDIGKVWVADDGAAVAVWTTPESVEAGAVFAEIGPRMAELSGSRLAAQQQMEGLLAPHRPKEPAWFLATVGVSPDHQGKGLGSAVVLPGVEAAERAGVPAFLETSAPRNLPFYERLGFTVTADVEVPEGPRTWCMTRKPGA
modifications: Synthetic Immune Receptor (SIR)
B2: 041416-P02 (protein)
chain: MALPVTALLLPLALLLHAARPDIVMTQSQKSMSTSVGDRVSITCKASQDVITGVAWYQQKPGQSPKLLIYSASYRYTGVPDRFTGSGSGTDFTFTISNVQAEDLAVYYCQQHYSTPLTFGAGTKLELKLEGKPIPNPLLGLDSTGSGEDLKNVFPPEVAVFEPSKAEIAHTQKATLVCLATGFYPDHVELSWWVNGKEVHSGVCTDPQPLKEQPALNDSRYCLSSRLRVSATFWQNPRNHFRCQVQFYGLSENDEWTQDRAKPVTQIVSAEAWGRADCGITSASYHQGVLSATILYEILLGKATLYAVLVSALVLMAMVKRKDSRGRAKRSGSGATNFSLLKQAGDVEENPGPTSMDWIWRILFLVGAATGAHSFEQVQLQQPGAELVRPGASVKLSCKASGYSFTTYWMNWVKQRPGQGLEWIGMIHPSDSETRLNQKFKDKATLTVDKSSSTAYMQLSSPTSEDSAVYYCARSTMIATRAMDYWGQGTSVTVSSTREQKLISEEDGSGTPFPSLAPPIMLLVDGKQQMVVVCLVLDVAPPGLDSPIWFSAGNGSALDAFTYGPSPATDGTWTNLAHLSLPSEELASWEPLVCHTGPGAEGHSRSTQPMHLSGEASTARTCPQEPLRGTPGGALWLGVLRLLLFKLLLFDLLLTCSCLCDPAGPLPSPATTTRLRALGSHRLHPATETGGREATSSPRPQPRDRRWGDTPPGRKPGSPVRAKRSGSGVKQTLNFDLLKLAGDVESNPGPSRGHMTEYKPTVRLATRDDVPRAVRTLAAAFADYPATRHTVDPDRHIERVTELQELFLTRVGLDIGKVWVADDGAAVAVWTTPESVEAGAVFAEIGPRMAELSGSRLAAQQQMEGLLAPHRPKEPAWFLATVGVSPDHQGKGLGSAVVLPGVEAAERAGVPAFLETSAPRNLPFYERLGFTVTADVEVPEGPRTWCMTRKPGA
modifications: Polynucleotide encoding a Synthetic Immune Receptor (SIR)
B3: 090116-L01 (protein)
chain: MALPVTALLLPLALLLHAARPLEGKPIPNPLLGLDSTGSGEDLKNVFPPEVAVFEPSKAEIAHTQKATLVCLATGFYPDHVELSWWVNGKEVHSGVCTDPQPLKEQPALNDSRYCLSSRLRVSATFWQNPRNHFRCQVQFYGLSENDEWTQDRAKPVTQIVSAEAWGRADCGITSASYHQGVLSATILYEILLGKATLYAVLVSALVLMAMVKRKDSRGRAKRSGSGATNFSLLKQAGDVEENPGPTSMALPVTALLLPLALLLHAARPDIVMTQSQKSMSTSVGDRVSITCKASQDVITGVAWYQQKPGQSPKLLIYSASYRYTGVPDRFTGSGSGTDFTFTISNVQAEDLAVYYCQQHYSTPLTFGAGTKLELKGGGGSGGGGSGGGGSQVQLQQPGAELVRPGASVKLSCKASGYSFTTYWMNWVKQRPGQGLEWIGMIHPSDSETRLNQKFKDKATLTVDKSSSTAYMQLSSPTSEDSAVYYCARSTMIATRAMDYWGQGTSVTVSSTREQKLISEEDGSGIQNPDPAVYQLRDSKSSDKSVCLFTDFDSQTNVSQSKDSDVYITDKCVLDMRSMDFKSNSAVAWSNKSDFACANAFNNSIIPEDTFFPSSDVPCDVKLVEKSFETDTNLNFQNLSVIGFRILLLKVAGFNLLMTLRLWSSRAKRSGSGVKQTLNFDLLKLAGDVESNPGPSRGHMTEYKPTVRLATRDDVPRAVRTLAAAFADYPATRHTVDPDRHIERVTELQELFLTRVGLDIGKVWVADDGAAVAVWTTPESVEAGAVFAEIGPRMAELSGSRLAAQQQMEGLLAPHRPKEPAWFLATVGVSPDHQGKGLGSAVVLPGVEAAERAGVPAFLETSAPRNLPFYERLGFTVTADVEVPEGPRTWCMTRKPGA
modifications: Synthetic Immune Receptor (SIR)
B4: 091216-L03 (protein)
chain: MALPVTALLLPLALLLHAARPLEGKPIPNPLLGLDSTGSGEDLKNVFPPEVAVFEPSKAEIAHTQKATLVCLATGFYPDHVELSWWVNGKEVHSGVCTDPQPLKEQPALNDSRYCLSSRLRVSATFWQNPRNHFRCQVQFYGLSENDEWTQDRAKPVTQIVSAEAWGRADCGITSASYHQGVLSATILYEILLGKATLYAVLVSALVLMAMVKRKDSRGRAKRSGSGATNFSLLKQAGDVEENPGPTSTMALPVTALLLPLALLLHAARPDIQMTQSPSSLSASVGDRVTITCKASQDVGIAVAWYQQKPGKVPKLLIYWASTRHTGVPDRFSGSGSGTDFTLTISSLQPEDVATYYCQQYSSYPYTFGQGTKVEIKGGGGSGGGGSGGGGSEVQLVESGGGLVQPGGSLRLSCAASGFDFSRYWMSWVRQAPGKGLEWIGEINPDSSTINYAPSLKDKFIISRDNAKNSLYLQMNSLRAEDTAVYYCARPDGNYWYFDVWGQGTLVTVSSTREQKLISEEDGSGIQNPDPAVYQLRDSKSSDKSVCLFTDFDSQTNVSQSKDSDVYITDKCVLDMRSMDFKSNSAVAWSNKSDFACANAFNNSIIPEDTFFPSSDVPCDVKLVEKSFETDTNLNFQNLSVIGFRILLLKVAGFNLLMTLRLWSSRAKRSGSGVKQTLNFDLLKLAGDVESNPGPSRGHMTEYKPTVRLATRDDVPRAVRTLAAAFADYPATRHTVDPDRHIERVTELQELFLTRVGLDIGKVWVADDGAAVAVWTTPESVEAGAVFAEIGPRMAELSGSRLAAQQQMEGLLAPHRPKEPAWFLATVGVSPDHQGKGLGSAVVLPGVEAAERAGVPAFLETSAPRNLPFYERLGFTVTADVEVPEGPRTWCMTRKPGA
modifications: Synthetic Immune Receptor (SIR)
B5: 110116-L01 (protein)
chain: MALPVTALLLPLALLLHAARPLEQKLISEEDLGSGDRPDPAVYQLRDSKSSDKSVCLFTDFDSQTNVSQSKDSDVYITDKCVLDMRSMDFKSNSAVAWSNKSDFACANAFNNSIIPEDTFFPSPESSCDVKLVEKSFETDTNLNFQNLSVIGFRILLLKVAGFNLLMTLRLWSSSSRAKRSGSGVKQTLNFDLLKLAGDVESNPGPTSMALPVTALLLPLALLLHAARPDIVMTQSQKSMSTSVGDRVSITCKASQDVITGVAWYQQKPGQSPKLLIYSASYRYTGVPDRFTGSGSGTDFTFTISNVQAEDLAVYYCQQHYSTPLTFGAGTKLELKGGGGSGGGGSGGGGSQVQLQQPGAELVRPGASVKLSCKASGYSFTTYWMNWVKQRPGQGLEWIGMIHPSDSETRLNQKFKDKATLTVDKSSSTAYMQLSSPTSEDSAVYYCARSTMIATRAMDYWGQGTSVTVSSTRGKPIPNPLLGLDSTGSGEDLKNVFPPEVAVFEPSEAEISHTQKATLVCLATGFYPDHVELSWWVNGKEVHSGVCTDPQPLKEQPALNDSRYCLSSRLRVSATFWQNPRNHFRCQVQFYGLSENDEWTQDRAKPVTQIVSAEAWGRADCGFTSESYQQGVLSATILYEILLGKATLYAVLVSALVLMAMVKRKDSRGRAKRSGSGATNFSLLKQAGDVEENPGPSRGHMTEYKPTVRLATRDDVPRAVRTLAAAFADYPATRHTVDPDRHIERVTELQELFLTRVGLDIGKVWVADDGAAVAVWTTPESVEAGAVFAEIGPRMAELSGSRLAAQQQMEGLLAPHRPKEPAWFLATVGVSPDHQGKGLGSAVVLPGVEAAERAGVPAFLETSAPRNLPFYERLGFTVTADVEVPEGPRTWCMTRKPGA
modifications: Synthetic Immune Receptor (SIR)
B6: 060616-K04 (protein)
chain: MALPVTALLLPLALLLHAARPDIQMTQSPSSLSASVGDRVTITCKASQDVGIAVAWYQQKPGKVPKLLIYWASTRHTGVPDRFSGSGSGTDFTLTISSLQPEDVATYYCQQYSSYPYTFGQGTKVEIKLEGKPIPNPLLGLDSTGSGEDLKNVFPPEVAVFEPSKAEIAHTQKATLVCLATGFYPDHVELSWWVNGKEVHSGVCTDPQPLKEQPALNDSRYCLSSRLRVSATFWQNPRNHFRCQVQFYGLSENDEWTQDRAKPVTQIVSAEAWGRADCGITSASYHQGVLSATILYEILLGKATLYAVLVSALVLMAMVKRKDSRGRAKRSGSGATNFSLLKQAGDVEENPGPTSMDWIWRILFLVGAATGAHSFEEVQLVESGGGLVQPGGSLRLSCAASGFDFSRYWMSWVRQAPGKGLEWIGEINPDSSTINYAPSLKDKFIISRDNAKNSLYLQMNSLRAEDTAVYYCARPDGNYWYFDVWGQGTLVTVSSTREQKLISEEDGSGIQNPDPAVYQLRDSKSSDKSVCLFTDFDSQTNVSQSKDSDVYITDKCVLDMRSMDFKSNSAVAWSNKSDFACANAFNNSIIPEDTFFPSSDVPCDVKLVEKSFETDTNLNFQNLSVIGFRILLLKVAGFNLLMTLRLWSSRAKRSGSGVKQTLNFDLLKLAGDVESNPGPSRGHMTEYKPTVRLATRDDVPRAVRTLAAAFADYPATRHTVDPDRHIERVTELQELFLTRVGLDIGKVWVADDGAAVAVWTTPESVEAGAVFAEIGPRMAELSGSRLAAQQQMEGLLAPHRPKEPAWFLATVGVSPDHQGKGLGSAVVLPGVEAAERAGVPAFLETSAPRNLPFYERLGFTVTADVEVPEGPRTWCMTRKPGA
modifications: Synthetic Immune Receptor (SIR)

In the first assay the test system is target antigen-expressing cell line. Nature of the assay: Jurkat NFAT-GFP assay, coculture with target cell lines expressing the respective target antigen (summary Table 10A). The assay is classed as cell-based, human. Also noted: key: The signs +/−, +, 2+ etc. after the name of the cell lines indicate the relative degree of positivity on the Jurkat-NFAT-GFP assay as measured by the % GFP positive cells; +: relative degree of positivity on the Jurkat-NFAT-GFP assay as measured by the % GFP positive cells; 2+: relative degree of positivity on the Jurkat-NFAT-GFP assay as measured by the % GFP positive cells. To be noted: coculture with HL60 cells. An outline of the steps: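 Jurkat cells carrying an NFAT-driven GFP reporter and lentivirally expressing a SIR were cocultured with antigen-bearing target cells (E:T ~1:2) for about 4–18 h. GFP induction read by flow cytometry as % GFP+ cells, scored positive and graded (+/−, +, 2+) against parental Jurkat-NFAT-GFP cells.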
As to B1, the “NFAT-GFP ASSAY Positive Cell lines” value is recorded as “HL60 (+/−)”.

The same assay, now with this note: coculture with L363 cells.
Regarding B2, the “NFAT-GFP ASSAY Positive Cell lines” value is listed as “(+/−)”.
Same read-out and setting: next, B3: “(+)”; B4: “U266 (+), L363 (+)”; B5: “U266 (+), L363 (+)”.
Same read-out and setting: next, B6: “L363 (2+)”.

The same assay, now with this note: coculture with U266 cells.
For the molecule B2, the “NFAT-GFP ASSAY Positive Cell lines” value is on record as “U266 (+/−), L363”.
With B3, the “NFAT-GFP ASSAY Positive Cell lines” value was “U266 (+/−), L363”.
Still for that read-out and setting: in the case of B4 it was “U266 (+), L363 (+)”; in that of B5, “U266 (+), L363 (+)”.
